Reference: US20060198894A1, “Stabilized, solid-state polypeptide particles” (priority 2002, published 2006)
Where no end group is shown, it is not given here.

Tests used:
Format in all cases: physicochemical
[1] = Stability of PACAP suspended in suspension vehicles at elevated temperature, RP-HPLC and SEC
Source text: Due to the nature of the suspension vehicles used in implantable drug delivery systems, mixing of the suspension formulation bulk and subsequent loading of the suspension formulation into the implantable systems are often conducted at elevated temperatures. To evaluate the stability of PACAP analog (or simply “PACAP”) suspended in various suspension vehicles at elevated temperatures, unprotected, lyophilized PACAP was suspended in four different suspension vehicles (LL/GML/PVP, BA/PVP, EHL/PVP, and PEG/PVP). To suspend the PACAP into the suspension vehicles 3.3 mg PACAP acetate was manually mixed into each of the different suspensions to achieve a PACAP content of approximately 3%. The stability of the PACAP suspension formulations was then evaluated after incubation at 65° C. for four hours.
The PACAP suspensions were then further incubated at 37° C. and 65° C. an additional 17 days. […] (Table 3). […] In addition, other chemical degradation contributed to the loss of lyophilized PACAP.

[2] = Aggregation / dimer formation in solid-state PACAP particles stored at 60° C. for two months, SEC; settings: for dimer formation: two months of storage at 60° C.
Method: (§1) The effect of pH on the stability of PACAP molecules over time was evaluated. In order to make such an evaluation, PACAP raw material was first dissolved in H2O in three different solutions, with the first solution having a pH of 2, the second solution having a pH of 4, and the third solution having a pH of 6. The pH of each solution was adjusted to the desired value using diluted HCl. Each of the three solutions was placed in lyophilization vials, and solid-state PACAP particles were produced from each of the three solutions through the lyophilization process already described herein. Particles from each of the three solutions were then stored for two months at 60° C., and the stability of the PACAP included in the solid-state particles was thereafter evaluated using RP-HPLC and SEC.
(§2) Solid-state PACAP particles were prepared from each of the eight solutions through lyophilization, as has already been described, and solid-state PACAP particles produced from each of the eight solutions were then stored at 60° C. for two months. After exposing the various solid-state PACAP particles to a temperature of 60° C. over two months, the stability of the PACAP included in various particles was evaluated using RP HPLC and SEC processes.
PACAP particles containing histidine buffer (Sigma) and PACAP particles containing histidine buffer in combination with calcium chloride (CaCl2, J T Baker), sucrose and sodium dodecyl sulfate (SDS, Pierce) were prepared and the stabilization of PACAP provided by such particles was evaluated. To prepare the PACAP particles evaluated, six different aqueous solutions were prepared. Each solution included a desired amount of PACAP dissolved therein, and the pH of each of the six solutions prepared was adjusted to 6 by the addition of diluted HCl. The first aqueous solution was prepared without additives (histidine buffer, CaCl2, sucrose, or SDS). The second aqueous solution was prepared with a 10 mM concentration of histidine buffer. The third aqueous solution was formulated with a 10 mM concentration of histidine buffer as well as a 10 mM concentration of CaCl2. The fourth aqueous solution was formulated with a 10 mM concentration of histidine buffer and included sucrose at a 0.5/1 weight ratio (sucrose/PACAP) relative to PACAP. The fifth aqueous solution was prepared with a 10 mM concentration of histidine buffer, a 10 mM concentration of CaCl2, and an amount of sucrose providing a 0.5/1 weight ratio (sucrose/PACAP) relative to PACAP. The sixth aqueous solution was formulated with a 10 mM concentration of histidine buffer and 0.02 wt % SDS. Solid-state PACAP particles were then produced from each of the six solutions using the lyophilization process already described herein. The PACAP particles produced from each solution were then stored at 60° C. for two months, and the stability of the PACAP contained within the various different particles was evaluated using RP-HPLC and SEC processes after such storage. […] In addition, sucrose, CaCl2 and SDS further stabilized the peptide, providing roughly 14 fold to 20 fold decreases in aggregate formation.
To evaluate the stabilizing effect of CaCl2 in PACAP particles prepared at acidic and near neutral pH, four different types of particles were formulated, stored at 60° C. for two months, and then analyzed for PACAP degradation. The four different particle formulations were prepared from four different aqueous solutions. Each of the four solutions included a desired amount of PACAP dissolved therein and the pH of each solution was adjusted to the desired level using diluted HCl. The first aqueous solution was formulated without additives (histidine or CaCl2), and the pH of the first solution was adjusted to 2. The second aqueous solution was formulated with a 10 mM concentration of CaCl2, and the pH of the second solution was adjusted to 2. […]

[3] = Total degradation of lyophilized PACAP with excipients stored at 2-8, 40 and 60° C. up to 3 months, RP-HPLC
Method: (§3) The preliminary findings from the processing study led to the evaluation of the stabilization effect of sugar (sucrose) and nonionic surfactant (Tween 80) on PACAP lyophiles and suspensions. In order to carry out the evaluation, samples were prepared with PACAP in 10 mM NH4OAc (pH6.4) at 3 levels of Tween 80 (0, 0.05, 0.2 wt %) and sucrose (0, 0.5/1, 1/1, w/w). A solution of PACAP in 10 mM of histidine (pH 6.4) and sodium succinate (pH 5.6) was also prepared. Each of the PACAP solutions were lyophilized to obtain reconstituted, solid-state PACAP particles, and individual vials were provided 3.3 mg samples of the material reconstituted from each of the solutions, with the samples containing (1) no additive, (2) 0.2 wt % Tween 80, (3) 0.2 wt % Tween 80+0.5:1, w/w sucrose, and (4) 1:1, w/w sucrose. The various 3.3 mg samples were manually mixed with LL/GML/PVP and BA/PVP to provide suspension formulations having about 3% PACAP content, and the suspension formulations were subjected to 4 hours of incubation at 65° C. After the initial incubation period, the various suspension formulations were stored as described below and evaluated by RP-HPLC and SEC.
(§4) Solid-state PACAP particles were prepared via a lyophilization process (FTS Duro stop) from three different polypeptide solutions prepared in NH4OAc buffer at pH6. Each of the three different solutions contained a different amount of sucrose, with the first containing no sucrose, the second containing a weight ratio of sucrose to PACAP of 0.5/1, and the third containing a weight ratio of sucrose to PACAP 1/1. Solid-state PACAP particles prepared from each of the three solutions were stored at control temperatures ranging from 2° C. to 8° C., a temperature approximating physiologic temperature (40° C.), and a temperature exceeding physiologic temperature (60° C.). The stability of the PACAP contained within each group of solid-state PACAP particles was assessed at 24 days and 3 months. To assess PACAP stability within each group of particles, the particles were reconstituted in water and analyzed by reversed-phase RP-HPLC (acetonitrile gradient elution with mobile phase containing 0.1% trifluoroacetic acid, and a UV detection at 214 nm) and size exclusion HPLC (SEC, isocratic elution, 30% acetonitrile mixed with 70% of aqueous solution containing 0.1% trifluoroacetic acid and 200 mM of sodium chloride, and a UV detection at 220 nm).

[4] = Stability of solid-state PACAP particles stored at 60° C. for two months, RP-HPLC (recovery / total degradation)
Method: as §1, §2
PACAP particles containing histidine buffer (Sigma) and PACAP particles containing histidine buffer in combination with calcium chloride (CaCl2, J T Baker), sucrose and sodium dodecyl sulfate (SDS, Pierce) were prepared and the stabilization of PACAP provided by such particles was evaluated. To prepare the PACAP particles evaluated, six different aqueous solutions were prepared. Each solution included a desired amount of PACAP dissolved therein, and the pH of each of the six solutions prepared was adjusted to 6 by the addition of diluted HCl. The first aqueous solution was prepared without additives (histidine buffer, CaCl2, sucrose, or SDS). The second aqueous solution was prepared with a 10 mM concentration of histidine buffer. The third aqueous solution was formulated with a 10 mM concentration of histidine buffer as well as a 10 mM concentration of CaCl2. The fourth aqueous solution was formulated with a 10 mM concentration of histidine buffer and included sucrose at a 0.5/1 weight ratio (sucrose/PACAP) relative to PACAP. […] The PACAP particles produced from each solution were then stored at 60° C. for two months, and the stability of the PACAP contained within the various different particles was evaluated using RP-HPLC and SEC processes after such storage. […]
To evaluate the stabilizing effect of CaCl2 in PACAP particles prepared at acidic and near neutral pH, four different types of particles were formulated, stored at 60° C. for two months, and then analyzed for PACAP degradation. […]

[5] = Aggregation of lyophilized PACAP and PACAP suspensions with excipients stored at 2-8, 40 and 60° C. up to 3 months, SEC
Method: as §3, §4

[6] = Example 2 lyophilized formulations, except samples containing 1:1 w/w sucrose
[7] = lyophilized PACAP, ammonium acetate app. pH 6.4, 40° C. for 3 months (FIG. 1)

PACAP analog: synthetic PACAP-R3 agonist analog manufactured by Bayer; 31 amino acid sequence HSDAVFTDNYTRLRKQVAAKKYLQSIKNKRY (SEQ. I.D. NO. 1) (HSDAVFTDNYTRLRKQVAAKKYLQSIKNKRY; ends and bridges not checked)
stability of PACAP suspensions ([1]; further incubated at 37° C. an additional 17 days): marginal stability loss | stability of PACAP suspensions ([1]; further incubated at 65° C. an additional 17 days): relatively more aggressive degradation | stability of PACAP suspension formulations ([1]; unprotected lyophilized PACAP, about 3%, in LL/GML/PVP, BA/PVP, EHL/PVP, PEG/PVP, 65° C. for four hours): stable | dimer formation ([2]; particles at acidic pH with Ca2+/PACAP analog 4/1 molar ratio): 0.8% | dimer formation ([2]; particles at acidic pH with trehalose/PACAP analog 0.55/1 w/w): 0.7% | decrease in aggregate formation ([2]; particles from pH 6 solution with 10 mM histidine buffer vs no additives, 60° C. for two months): roughly 6 fold | dimer formation ([2]; particles lyophilized from stabilizing solution of apparent pH 2 (diluted HCl), no excipient): 1.1% | improvement in preventing aggregate formation ([2]; particles prepared at pH 6 with sucrose (7.3 molar equivalent), 60° C. for two months): ~6 fold | improvement in preventing aggregate formation ([2]; particles prepared at pH 6 with trehalose (7.3 molar equivalent), 60° C. for two months): ~4 fold | rate of total degradation at 60° C. relative to 40° C. [3, 6]: about 5 times | rate of total degradation (RP HPLC) at 60° C. relative to 40° C. ([3]; Example 3, NH4OAc buffer pH6, except particles with PACAP to sucrose weight ratio of 1/1): about 5 times | total rate of degradation at 60° C. relative to 40° C. ([3]; PACAP analog contained within particles): approximately five times higher | time stable ([3]; lyophilized PACAP without a stabilizer, at 4° C.): at least 3 months | estimated total degradation ([3]; lyophilized PACAP, apparent pH 6.4 in ammonium acetate, equal amount of sucrose (w/w), in 6 months at 40° C.): 8.4% | effect of acidic pH on stability ([4]; particles lyophilized at pH 2, 4, 6 (HCl), two months at 60° C. (FIG. 9)): greatly improved stability | effect of trehalose and methyl MP on stability ([4]; particles prepared at pH2, relative to pH2 without stabilizing sugar, 60° C. for two months): additive stability | effect of sucrose on stability ([4]; particles prepared at pH2 with sucrose, 60° C. for two months): significant destabilizing effect | effect of CaCl2 on stability ([4]; particles with 10 mM CaCl2 at both pH 2 and 6, 60° C. for two months): further improved the stability | rate of aggregation at 60° C. relative to 40° C. [5, 6]: approximately 10 times | rate of aggregation (SEC) at 60° C. relative to 40° C. ([5]; Example 3, NH4OAc buffer pH6, sucrose 0, 0.5/1, 1/1, all formulations tested): 10 times | effect of sucrose on aggregate formation in suspensions ([5]; PACAP suspensions in BA/PVP and LL/GML/PVP, 40° C.): suppressed aggregate formation | effect of Tween 80 on aggregation [5, 7]: no added effect | effect of sucrose on aggregation [5, 7]: suppressed PACAP aggregation | effect of histidine and sodium succinate on aggregate formation ([5]; lyophilized formulations, 40° and 60° C. over 3 months): better stabilizers than ammonium acetate | rate of aggregation or dimerization at 60° C. relative to 40° C. ([5]; solid-state PACAP particles): ten times higher
